Assay results reported in patent publication US20030176373, “Agents that modulate DNA-PK activity and methods of use thereof” (published 2003).

Columns and labels:
[1] = target: T1, Ku70/Ku80 heterodimer (Ku antigen) (Mus musculus, UniProt P23475;P27641 P23475:2-608,P27641:1-732); assay: competition; unlabeled 0.1-0.4 ug displaces labeled ds-ISS-ODN
Description: (§1) To verify the binding specificity of the Ku protein to ISS-ODN, inhibition studies were performed using cold ss or ds ISS or mutated (M, i.e., control) ODNs. Ten μg of fraction 20 from the affinity column were incubated with [³²P]-labeled ISS-ODN in the presence of unlabeled (0.1, 0.2 and 0.4 μg, respectively) ss-ISS-ODN (lanes 3-5), ds-ISS-ODN (lanes 7-9), ss-M-ODN (lanes 11-13) or ds-M-ODN (lanes 15-17).

[2] = target: T1, Ku70/Ku80 heterodimer (Ku antigen); assay: competition; no significant competition at 0.1-0.4 ug
Description: as §1

T1 sequence (P23475 2-608, chain 1 of 2): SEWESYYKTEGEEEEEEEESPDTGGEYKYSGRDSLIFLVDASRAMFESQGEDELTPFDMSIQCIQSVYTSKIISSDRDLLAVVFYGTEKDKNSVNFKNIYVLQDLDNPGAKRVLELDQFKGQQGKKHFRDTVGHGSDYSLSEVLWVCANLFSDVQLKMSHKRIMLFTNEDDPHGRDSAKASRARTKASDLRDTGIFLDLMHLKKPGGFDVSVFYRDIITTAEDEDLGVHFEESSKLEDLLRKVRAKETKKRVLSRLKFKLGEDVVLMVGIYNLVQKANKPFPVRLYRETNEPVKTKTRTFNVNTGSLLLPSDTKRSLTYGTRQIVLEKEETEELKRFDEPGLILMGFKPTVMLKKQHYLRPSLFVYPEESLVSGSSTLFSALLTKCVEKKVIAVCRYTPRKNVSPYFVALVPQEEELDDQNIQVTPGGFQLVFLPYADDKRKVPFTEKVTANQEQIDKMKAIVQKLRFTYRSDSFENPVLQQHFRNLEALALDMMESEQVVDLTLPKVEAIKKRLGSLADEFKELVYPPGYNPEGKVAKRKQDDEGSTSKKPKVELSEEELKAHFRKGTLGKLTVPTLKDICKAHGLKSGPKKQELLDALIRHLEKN
T1 sequence (P27641 whole entry, chain 2 of 2): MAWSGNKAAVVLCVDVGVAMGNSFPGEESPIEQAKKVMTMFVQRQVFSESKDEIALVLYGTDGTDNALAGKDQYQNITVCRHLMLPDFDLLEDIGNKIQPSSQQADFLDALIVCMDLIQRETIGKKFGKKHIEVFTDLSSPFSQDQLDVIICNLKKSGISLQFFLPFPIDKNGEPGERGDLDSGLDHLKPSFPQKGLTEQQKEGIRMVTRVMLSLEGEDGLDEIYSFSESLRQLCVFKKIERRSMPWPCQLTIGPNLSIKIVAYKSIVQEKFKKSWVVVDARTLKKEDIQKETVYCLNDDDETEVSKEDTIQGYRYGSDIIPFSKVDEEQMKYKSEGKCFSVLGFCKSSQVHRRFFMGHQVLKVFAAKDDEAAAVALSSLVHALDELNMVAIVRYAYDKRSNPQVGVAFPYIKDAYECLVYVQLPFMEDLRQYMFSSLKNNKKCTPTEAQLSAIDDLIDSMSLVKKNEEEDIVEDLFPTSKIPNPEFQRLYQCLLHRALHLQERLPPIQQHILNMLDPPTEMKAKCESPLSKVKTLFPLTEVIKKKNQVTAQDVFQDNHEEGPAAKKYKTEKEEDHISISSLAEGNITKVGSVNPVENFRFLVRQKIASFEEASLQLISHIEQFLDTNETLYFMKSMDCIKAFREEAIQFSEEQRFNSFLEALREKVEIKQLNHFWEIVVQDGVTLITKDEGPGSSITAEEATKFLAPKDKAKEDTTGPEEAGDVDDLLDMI

B1: ss-ISS-ODN (ssDNA)
DNA: TGACTGTGAACGTTCGAGATGA
[1]
  binding result: binds

B2: ss-M-ODN (ssDNA)
DNA: TGACTGTGAACCTTAGAGATGA
[2]
  binding result: no binding
